The target in this assay is mlp3a_human MAP1LC3A (UniProt Q9H492).

As to “BCL2/adenovirus E1B 19 kDa protein-interacting protein 3-like (Mus musculus), Q9Z2F7 L38A”, the “effect of a mutation on the interaction” value is recorded as “disrupting interaction”.

Values taken from IntAct's records for PubMed 20010802.
